Experimental data: publication PMC12095755 (Nature Communications, 2025)

Molecular target: human MDM2 (Homo sapiens, UniProt Q00987)
Assay: MDM2 AlphaLISA competition assay
Format: binding
Conditions: up to 50 µM

human MDM2, sequence (Q00987 whole entry): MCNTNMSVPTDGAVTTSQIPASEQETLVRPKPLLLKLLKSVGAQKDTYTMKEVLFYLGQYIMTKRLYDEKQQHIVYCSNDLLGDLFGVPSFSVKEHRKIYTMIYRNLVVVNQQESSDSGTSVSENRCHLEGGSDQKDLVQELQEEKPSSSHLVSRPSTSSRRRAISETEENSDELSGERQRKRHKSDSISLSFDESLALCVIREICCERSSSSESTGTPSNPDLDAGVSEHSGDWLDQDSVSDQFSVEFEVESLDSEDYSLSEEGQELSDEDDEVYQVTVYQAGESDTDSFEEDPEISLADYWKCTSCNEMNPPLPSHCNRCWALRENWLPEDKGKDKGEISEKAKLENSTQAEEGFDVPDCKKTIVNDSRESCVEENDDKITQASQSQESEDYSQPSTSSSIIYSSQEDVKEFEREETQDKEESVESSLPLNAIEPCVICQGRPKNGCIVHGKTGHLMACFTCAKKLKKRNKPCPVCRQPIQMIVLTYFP

F-S-D-L-W (FSDLW) [p53 motif]
activity in the AlphaLISA assay: no activity
